# Residue numbers refer to the chain shown, from its start.
# B1: H237-MB508/MRAL-k0 (antibody, mouse IgG1, kappa)
# heavy: QVQLQESGPGLVKPSETLSLTCAVSGHSISHDHAWSWVRQPPGEGLEWIGFISYSGITNYNPSLQGRVTISRDNSKNTLYLQMNSLRAEDTAVYYCARSLARTTAMDYWGEGTLVTVSSAKTTPPSVYPLAPGSAAQTNSMVTLGCLVKGYFPEPVTVTWNSGSLSSGVHTFPAVLQSDLYTLSSSVTVPSSTWPSETVTCNVAHPASSTKVDKKIVPRDCGCKPCICEAYEVEMVFIFPPKPKDVLTITLTPKVTCVVVDISKDDPEVQFSWFVDDVEVHTAQTQPREEQFNSTFRSVSELPIMHQDWLNGKEFKCRVNSAAFPAPIEKTISKTKGRPKAPQVYTIPPPKEQMAKDKVSLTCMITDFFPEDITVEWQWNGQPAENYKNTQPIMDTDGSYFVYSKLNVQKSNWEAGNTFTCSVLHEGLHNHHTEKSLSHSPGK
# light: not shown
# notes: copies: 2 + 2
# B2: H237-MB470/MRAL-k0 (antibody, mouse IgG1, kappa)
# heavy: B1 heavy with A230N, M235E
# light: not shown
# notes: copies: 2 + 2
# B3: H237-MB510/MRAL-k0 (antibody, mouse IgG1, kappa)
# heavy: B1 heavy with A230N
# light: not shown
# notes: copies: 2 + 2
# B4: H237-MB483/MRAL-k0 (antibody, mouse IgG1, kappa)
# heavy: B1 heavy with A230N, M235S
# light: not shown
# notes: copies: 2 + 2
# B5: H237-MB484/MRAL-k0 (antibody, mouse IgG1, kappa)
# heavy: B1 heavy with A230T, M235S
# light: not shown
# notes: copies: 2 + 2
# B6: H237-MB511/MRAL-k0 (antibody, mouse IgG1, kappa)
# heavy: B1 heavy with A230T
# light: not shown
# notes: copies: 2 + 2
# B7: H237-MB488/MRAL-k0 (antibody, mouse IgG1, kappa)
# heavy: B1 heavy with A230P, Y231N, M235S
# light: not shown
# notes: copies: 2 + 2
# B8: H237-MB472/MRAL-k0 (antibody, mouse IgG1, kappa)
# heavy: B1 heavy with A230V, M235E
# light: not shown
# notes: copies: 2 + 2
# B9: H237-MB509/MRAL-k0 (antibody, mouse IgG1, kappa)
# heavy: B1 heavy with A230D
# light: not shown
# notes: copies: 2 + 2
# B10: H237-MB471/MRAL-k0 (antibody, mouse IgG1, kappa)
# heavy: B1 heavy with A230T, M235E
# light: not shown
# notes: copies: 2 + 2
# B11: H237-MB469/MRAL-k0 (antibody, mouse IgG1, kappa)
# heavy: B1 heavy with A230D, M235E
# light: not shown
# notes: copies: 2 + 2
# B12: H237-MB485/MRAL-k0 (antibody, mouse IgG1, kappa)
# heavy: B1 heavy with A230V, M235S
# light: not shown
# notes: copies: 2 + 2
# B13: H237-MB468/MRAL-k0 (antibody, mouse IgG1, kappa)
# heavy: B1 heavy with M235E
# light: not shown
# notes: copies: 2 + 2
# B14: H237-MB482/MRAL-k0 (antibody, mouse IgG1, kappa)
# heavy: B1 heavy with A230D, M235S
# light: not shown
# notes: copies: 2 + 2
# B15: H237-MB489/MRAL-k0 (antibody, mouse IgG1, kappa)
# heavy: B1 heavy with E229Q, A230P, Y231N, M235S
# light: not shown
# notes: copies: 2 + 2
# B16: H237-MB487/MRAL-k0 (antibody, mouse IgG1, kappa)
# heavy: B1 heavy with E229I, A230P, Y231A, M235S
# light: not shown
# notes: copies: 2 + 2
# B17: H237-MB481/MRAL-k0 (antibody, mouse IgG1, kappa)
# heavy: B1 heavy with M235S
# light: not shown
# notes: copies: 2 + 2
# B18: H237-MB653/MRAL-k0 (antibody, mouse IgG1, kappa)
# heavy: B1 heavy with A230T, M235F
# light: not shown
# notes: copies: 2 + 2
# B19: H237-MB793/MRAL-k0 (antibody, mouse IgG1, kappa)
# heavy: B1 heavy with E229Q, A230P, Y231N, M235I
# light: not shown
# notes: copies: 2 + 2
# B20: H237-MB654/MRAL-k0 (antibody, mouse IgG1, kappa)
# heavy: B1 heavy with A230V, M235F
# light: not shown
# notes: copies: 2 + 2
# B21: H237-MB718/MRAL-k0 (antibody, mouse IgG1, kappa)
# heavy: B1 heavy with A230P, Y231N, M235T
# light: not shown
# notes: copies: 2 + 2
# B22: H237-MB705/MRAL-k0 (antibody, mouse IgG1, kappa)
# heavy: B1 heavy with A230P, Y231A, M235G
# light: not shown
# notes: copies: 2 + 2
# B23: H237-MB704/MRAL-k0 (antibody, mouse IgG1, kappa)
# heavy: B1 heavy with A230P, Y231A, M235A
# light: not shown
# notes: copies: 2 + 2
# B24: H237-MB713/MRAL-k0 (antibody, mouse IgG1, kappa)
# heavy: B1 heavy with A230P, Y231N, M235A
# light: not shown
# notes: copies: 2 + 2
# B25: H237-MB708/MRAL-k0 (antibody, mouse IgG1, kappa)
# heavy: B1 heavy with A230P, Y231A, M235P
# light: not shown
# notes: copies: 2 + 2
# B26: H237-MB719/MRAL-k0 (antibody, mouse IgG1, kappa)
# heavy: B1 heavy with A230P, Y231N, M235Q
# light: not shown
# notes: copies: 2 + 2
# B27: H237-MB710/MRAL-k0 (antibody)
# heavy: B1 heavy with A230P, Y231A, M235Q
# light: not shown
# notes: copies: 2 + 2
# B28: H237-MB716/MRAL-k0 (antibody, mouse IgG1, kappa)
# heavy: B1 heavy with A230P, Y231N, M235I
# light: not shown
# notes: copies: 2 + 2
# B29: H237-MB714/MRAL-k0 (antibody, mouse IgG1, kappa)
# heavy: B1 heavy with A230P, Y231N, M235G
# light: not shown
# notes: copies: 2 + 2
# B30: H237-MB717/MRAL-k0 (antibody, mouse IgG1, kappa)
# heavy: B1 heavy with A230P, Y231N, M235P
# light: not shown
# notes: copies: 2 + 2
# B31: H237-MB709/MRAL-k0 (antibody, mouse IgG1, kappa)
# heavy: B1 heavy with A230P, Y231A, M235T
# light: not shown
# notes: copies: 2 + 2
# B32: H237-MB657/MRAL-k0 (antibody, mouse IgG1, kappa)
# heavy: B1 heavy with A230P, Y231N, M235F
# light: not shown
# notes: copies: 2 + 2
# B33: H237-MB658/MRAL-k0 (antibody, mouse IgG1, kappa)
# heavy: B1 heavy with E229Q, A230P, Y231N, M235F
# light: not shown
# notes: copies: 2 + 2
# B34: H237-MB715/MRAL-k0 (antibody, mouse IgG1, kappa)
# heavy: B1 heavy with A230P, Y231N, M235V
# light: not shown
# notes: copies: 2 + 2
# B35: H237-MB655/MRAL-k0 (antibody, mouse IgG1, kappa)
# heavy: B1 heavy with A230P, Y231A, M235F
# light: not shown
# notes: copies: 2 + 2
# Target: T1, mouse FcγRIII extracellular domain with C-terminal His tag (mouse, UniProt P08508 31-215)
# T1 construct: Made on the basis of NCBI NP-034318.2; also called mFcγRIII; mFcgRIII
# T1 chain: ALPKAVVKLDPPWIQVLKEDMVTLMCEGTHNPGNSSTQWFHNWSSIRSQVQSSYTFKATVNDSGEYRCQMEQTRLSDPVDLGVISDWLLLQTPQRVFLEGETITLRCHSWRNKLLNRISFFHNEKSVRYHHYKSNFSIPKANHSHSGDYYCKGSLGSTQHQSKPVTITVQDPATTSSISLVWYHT
# Test: SPR Biacore T200
# Description: (§1) Each altered antibody was analyzed for its interaction with each Fcγ receptor prepared above using Biacore T100 (GE Healthcare Japan Corp.), Biacore T200 (GE Healthcare Japan Corp.), Biacore A100, or Biacore 4000. The running buffer used was HBS-EP+ (GE Healthcare Japan Corp.). The assay temperature was set to 25° C. The sensor chips used were chips prepared by immobilizing Protein L (ACTIGEN or BioVision) onto Series S Sensor Chip CM5 (GE Healthcare Japan Corp.) or Series S Sensor Chip CM4 (GE Healthcare Japan Corp.) by the amine coupling method.
# (§2) In order to calculate the KD value of each altered antibody for FcγR, kinetic analysis was conducted according to the following method: first, the antibody of interest was captured onto any of these chips and allowed to interact with mFcγR diluted with a running buffer. For the obtained sensorgram, the assay results were globally fit into the 1:1 Langmuir binding model using Biacore Evaluation Software to calculate an association rate constant ka (L/mol/s) and a dissociation rate constant kd (1/s). From these values, the dissociation constant KD (mol/L) was calculated.
row,Binder,relative mFcγRIII-binding activity (mIgG1 = 1)
1,B1,0.4
2,B2,4.9
3,B3,0.6
4,B4,0.9
5,B5,1.1
6,B6,0.6
7,B7,1.8
8,B8,2.5
9,B9,0.6
10,B10,4.8
11,B11,2.8
12,B12,0.5
13,B13,2.8
14,B14,0.7
15,B15,1.1
16,B16,0.5
17,B17,0.6

# Target: T2, mouse FcγRII extracellular domain with C-terminal His tag (mouse, UniProt P08101 30-210)
# T2 construct: Made on the basis of NCBI NP-034317.1; also called mFcγRII; mFcgRII
# T2 sequence: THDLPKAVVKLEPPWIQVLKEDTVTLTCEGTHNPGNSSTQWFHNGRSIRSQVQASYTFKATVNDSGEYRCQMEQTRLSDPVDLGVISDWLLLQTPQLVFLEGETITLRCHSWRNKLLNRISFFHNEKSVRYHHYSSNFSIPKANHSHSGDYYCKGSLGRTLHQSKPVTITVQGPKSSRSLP
# Test: SPR Biacore T200
# Description: as §1, §2
row,Binder,relative mFcγRII-binding activity (mIgG1 = 1)
1,B1,5.5
2,B2,63.8
3,B3,6.5
4,B4,9.4
5,B5,14.9
6,B6,8.3
7,B7,28.7
8,B8,39.4
9,B9,10.7
10,B10,91.4
11,B11,57.1
12,B12,5
13,B13,63.1
14,B14,14.1
15,B15,6.9
16,B16,6.8
17,B17,8.5

# Target: T3, mouse FcγRII extracellular domain, C-terminally His-tagged (mouse, UniProt P08101 30-210)
# T3 construct: the whole entry is named; also called mFcγRII; mFcgRII
# T3 sequence: T2 sequence
# Test: SPR Biacore T200, KD ratio
row,Binder,relative mFcγRII-binding activity (mIgG1 = 1) [fold]
1,B18,0.41
2,B19,1.17
3,B20,0.27
4,B21,0.85
5,B22,8.71
6,B23,14.1
7,B24,23.5
8,B25,0.28
9,B26,70.4
10,B27,50.8
11,B28,3.98
12,B29,14.2
13,B30,0.41
14,B31,0.61
15,B32,1.77
16,B33,0.51
17,B34,0.89
18,B35,0.4

# Target: T4, mouse FcγRIII extracellular domain, C-terminally His-tagged (mouse, UniProt P08508 31-215)
# T4 construct: the whole entry is named; also called mFcγRIII; mFcgRIII
# T4 chain: T1 chain
# Test: SPR Biacore T200, KD ratio
row,Binder,relative mFcγRIII-binding activity (mIgG1 = 1) [fold]
1,B18,0.1
2,B19,0.05
3,B20,0.07
4,B21,0.05
5,B22,0.75
6,B23,0.87
7,B24,2.5
8,B25,0.03
9,B26,2.31
10,B27,1.22
11,B28,0.05
12,B29,1.61
13,B30,0.03
14,B31,0.04
15,B32,0.08
16,B33,0.06
17,B34,0.02
18,B35,0.06

# Source: patent US20150203577A1 (Chugai, published 2015)
